This is an account of results in patent US12692305 (REVERB THERAPEUTICS, dated 2026).

Test [1] deals with T1, human IL-15 (human, UniProt P40933 49-162).
T1 construct: also called Premium grade IL-15; GMP grade human IL-15
Description: SPR, variant captured on anti-human Fc, IL-15 analyte, single-cycle kinetics, 1:1 fit. The method, then: (§1) EDC: 1-ethyl-3-(3-dimethylaminopropyl) carbodiimide hydrochloride; NHS: N-Hydroxysuccinimide; SPR: surface plasmon resonance; EDTA: ethylenediaminetetraacetic acid SPR Supplies Series S Sensor Chip CM5, Biacore amine coupling kit (NHS, EDC and 1 M ethanolamine), and 10 mM sodium acetate buffers were purchased from Cytiva Life Sciences (Marlborough, MA). […] PBS running buffer with 1% Tween20 (PBST) was purchased from Teknova Inc. (Hollister, Calif.). Goat polyclonal anti-human Fc antibody was purchased from Jackson Immuno Research Laboratories Inc. (West Grove, Pa.). EDTA was purchased from Bioshop (Burlington, ON). All SPR assays were carried out using a Biacore T200 Surface Plasmon Resonance instrument (Cytiva Life Sciences, (Marlborough, MA)) with PBST running buffer (with 0.5 M EDTA stock solution added to 3.4 mM final concentration) at a temperature of 25° C. The anti-human Fc capture surface was generated using a Series S Sensor Chip CM5 using the default parameters under the Immobilization Wizard in the Biacore T200 control software which was set to target 3000 resonance units (RUs).
The first flow cell was left empty to use as a blank control. […] The captured antibody surfaces were regenerated twice by 10 mM Glycine pH1.5 for 30 seconds at 30 μL/min. Buffer injections were performed for each analyte injection to be used for referencing.
(In general: In SPR one partner is held on a chip, and binding of the other changes the refractive index at the surface.)

Test [2] has as its target T2, human PD-1 (human, UniProt Q15116 25-167, limits assumed).
T2 construct: Recombinant protein used in SPR as analyte or amine-coupled ligand; also called PD1 antigen
Description: SPR, variant as analyte over immobilised PD1 (avidity possible).

The target of test [3] is T1, human IL-15. Description: SPR, variant captured on immobilised PD1, IL-15 analyte, single-cycle kinetics, 1:1 fit.
Test [4] concerns the target T2, human PD-1. Description: SPR, variant captured on protein A, PD1 analyte. The procedure: as §1, with “The anti-human Fc capture surface was generated using a Series S Sensor Chip CM5 using the default parameters under the Immobilization Wizard in the Biacore T200 control software which was set to target 3000 resonance units (RUs).” left out
The first flow cell was left empty to use as a blank control. […] Buffer injections were performed for each analyte injection to be used for referencing.

The target of test [5] is T2, human PD-1. Description: SPR, variant as analyte over immobilised PD1.
Test [6] has as its target T2, human PD-1. Description: SPR, variant as analyte over immobilised PD1 (avidity possible); PD1 capture surface, RV29 as analyte (third entry of the cell; avidity possible).

T2 sequence (Q15116 25-167 limits assumed): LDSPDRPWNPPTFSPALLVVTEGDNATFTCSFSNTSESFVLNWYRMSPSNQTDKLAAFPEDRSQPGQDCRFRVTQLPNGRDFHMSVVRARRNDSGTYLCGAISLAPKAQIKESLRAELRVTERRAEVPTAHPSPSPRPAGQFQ
T1 sequence (P40933 49-162 limits assumed): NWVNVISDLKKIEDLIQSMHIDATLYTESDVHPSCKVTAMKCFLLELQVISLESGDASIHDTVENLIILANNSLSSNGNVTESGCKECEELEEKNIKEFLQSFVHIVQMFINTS

B1: RV1 (antibody, human IgG1, lambda, V domains shown)
VH: QVQLVQSGAEVKKPGASVKVSCKASGYSFSSFGISWVRQAPGQGLEWLGWISAFNGYTKYAQKFQDRVTMTTDTSTSTAYMELRSLRSDDTAVYYCARDPAAWPLQQSLAWFDPWGQGTMVTVSS
VL: QSVLTQPPSASGTPGQRVTISCSGSTSNLKRNYVYWYQQLPGTAPKLLIYRDRRRPSGVPDRFSGSKSGTSASLAISGLRSEDEADYYCAWYDRELSEWVFGGGTKLTVLQ
notes: also called anti-IL-15 antibody (RV1); DISC0280-derived monospecific parent antibody
With B1, the Kd with human IL-15 [1] is 0.349 nM.

B2: RV31 (bispecific antibody, human IgG1, kappa, lambda, L234A L235A)
heavy: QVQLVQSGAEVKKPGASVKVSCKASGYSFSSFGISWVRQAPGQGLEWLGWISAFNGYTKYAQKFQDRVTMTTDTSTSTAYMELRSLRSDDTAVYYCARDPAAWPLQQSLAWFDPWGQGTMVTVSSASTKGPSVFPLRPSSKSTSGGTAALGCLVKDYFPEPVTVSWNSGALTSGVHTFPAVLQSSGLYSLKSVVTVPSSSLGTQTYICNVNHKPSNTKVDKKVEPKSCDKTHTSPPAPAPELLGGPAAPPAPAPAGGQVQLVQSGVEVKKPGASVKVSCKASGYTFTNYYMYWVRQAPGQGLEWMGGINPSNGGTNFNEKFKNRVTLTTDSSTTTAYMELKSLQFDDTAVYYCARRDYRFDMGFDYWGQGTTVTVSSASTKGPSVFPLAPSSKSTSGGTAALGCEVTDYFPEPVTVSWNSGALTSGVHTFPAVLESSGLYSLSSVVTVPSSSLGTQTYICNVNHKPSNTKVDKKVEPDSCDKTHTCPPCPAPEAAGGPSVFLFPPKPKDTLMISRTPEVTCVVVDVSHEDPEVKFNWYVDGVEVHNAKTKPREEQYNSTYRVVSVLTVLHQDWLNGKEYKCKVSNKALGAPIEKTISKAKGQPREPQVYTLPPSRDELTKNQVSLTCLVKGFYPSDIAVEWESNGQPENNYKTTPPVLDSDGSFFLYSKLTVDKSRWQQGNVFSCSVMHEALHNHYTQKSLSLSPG
light 1: EIVLTQSPATLSLSPGERATLSCRASKGVSTSGYSYLHWYQQKPGQAPRLLIYLASYLESGVPARFSGSGSGTDFTLTISSLEPEDFAVYYCQHSRDLPLTFGGGTKVEIKRTVAAPSVFIFPPKDERLKSGTASVVCLLNNFYPREAKVQWKVDNALQSGNSQESVTEQDSKDSTYSLSSRLTLSKADYEKHKVYACEVTHQGLSSPVTKSFNRGEC
light 2: QSVLTQPPSASGTPGQRVTISCSGSTSNLKRNYVYWYQQLPGTAPKLLIYRDRRRPSGVPDRFSGSKSGTSASLAISGLRSEDEADYYCAWYDRELSEWVFGGGTKLTVLQPKAAPSVTLFPPSDEELQANTATLVCLISDFYPGAVTVAWKADSSPVKAGVETTTPSKQSNNKYAAESELSLTPEQWKSHRSYSCQVTHEGSTVEKTVAPTECS
notes: Dual Fab domain format (H1H1L1L1L2L2), IgG1 LALAPG; Purity 83 % main peak; O-glycosylation reported, likely in the inter-Fab linker
Consider B2, for which the Kd was determined as 0.18 nM with human IL-15 [1], 0.163 nM with human PD-1 [2] and 0.717 nM with human IL-15 [3].

B3: RV32 (bispecific antibody, human IgG1, kappa, lambda, L234A L235A)
heavy: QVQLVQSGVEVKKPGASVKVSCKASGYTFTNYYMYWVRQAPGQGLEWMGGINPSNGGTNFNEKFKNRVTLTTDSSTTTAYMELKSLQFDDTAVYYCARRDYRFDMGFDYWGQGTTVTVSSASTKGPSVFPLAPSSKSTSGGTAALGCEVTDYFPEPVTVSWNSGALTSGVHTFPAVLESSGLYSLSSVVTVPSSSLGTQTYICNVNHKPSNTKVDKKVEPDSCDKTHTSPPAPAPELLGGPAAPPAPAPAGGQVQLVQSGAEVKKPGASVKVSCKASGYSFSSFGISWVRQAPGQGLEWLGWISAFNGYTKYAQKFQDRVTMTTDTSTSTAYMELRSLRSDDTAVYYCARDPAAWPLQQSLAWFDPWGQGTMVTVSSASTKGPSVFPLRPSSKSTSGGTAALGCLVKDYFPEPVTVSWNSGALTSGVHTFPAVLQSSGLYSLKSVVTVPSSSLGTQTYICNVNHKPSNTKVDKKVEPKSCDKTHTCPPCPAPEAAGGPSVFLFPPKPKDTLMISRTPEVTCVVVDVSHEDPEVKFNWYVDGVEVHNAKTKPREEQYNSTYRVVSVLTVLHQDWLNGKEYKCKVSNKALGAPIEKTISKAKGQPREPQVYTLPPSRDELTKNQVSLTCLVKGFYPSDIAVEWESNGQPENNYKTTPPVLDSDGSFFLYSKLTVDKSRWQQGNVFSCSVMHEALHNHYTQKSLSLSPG
light 1: EIVLTQSPATLSLSPGERATLSCRASKGVSTSGYSYLHWYQQKPGQAPRLLIYLASYLESGVPARFSGSGSGTDFTLTISSLEPEDFAVYYCQHSRDLPLTFGGGTKVEIKRTVAAPSVFIFPPKDERLKSGTASVVCLLNNFYPREAKVQWKVDNALQSGNSQESVTEQDSKDSTYSLSSRLTLSKADYEKHKVYACEVTHQGLSSPVTKSFNRGEC
light 2: QSVLTQPPSASGTPGQRVTISCSGSTSNLKRNYVYWYQQLPGTAPKLLIYRDRRRPSGVPDRFSGSKSGTSASLAISGLRSEDEADYYCAWYDRELSEWVFGGGTKLTVLQPKAAPSVTLFPPSDEELQANTATLVCLISDFYPGAVTVAWKADSSPVKAGVETTTPSKQSNNKYAAESELSLTPEQWKSHRSYSCQVTHEGSTVEKTVAPTECS
notes: Dual Fab domain format (H1H1L1L1L2L2), IgG1 LALAPG; O-glycosylation reported, likely in the inter-Fab linker; also called bispecific antibody in dual Fab domain format (RV32); bispecific anti-PD-1 x anti-IL-15 antibody
As for B3, the Kd with human IL-15 [1] was found to be 0.108 nM; with human PD-1 [2] it was 0.0678 nM; in the test with human IL-15 [3] it was 0.352 nM.

B4: RV36 (bispecific antibody, human IgG1, kappa, L234A L235A)
heavy: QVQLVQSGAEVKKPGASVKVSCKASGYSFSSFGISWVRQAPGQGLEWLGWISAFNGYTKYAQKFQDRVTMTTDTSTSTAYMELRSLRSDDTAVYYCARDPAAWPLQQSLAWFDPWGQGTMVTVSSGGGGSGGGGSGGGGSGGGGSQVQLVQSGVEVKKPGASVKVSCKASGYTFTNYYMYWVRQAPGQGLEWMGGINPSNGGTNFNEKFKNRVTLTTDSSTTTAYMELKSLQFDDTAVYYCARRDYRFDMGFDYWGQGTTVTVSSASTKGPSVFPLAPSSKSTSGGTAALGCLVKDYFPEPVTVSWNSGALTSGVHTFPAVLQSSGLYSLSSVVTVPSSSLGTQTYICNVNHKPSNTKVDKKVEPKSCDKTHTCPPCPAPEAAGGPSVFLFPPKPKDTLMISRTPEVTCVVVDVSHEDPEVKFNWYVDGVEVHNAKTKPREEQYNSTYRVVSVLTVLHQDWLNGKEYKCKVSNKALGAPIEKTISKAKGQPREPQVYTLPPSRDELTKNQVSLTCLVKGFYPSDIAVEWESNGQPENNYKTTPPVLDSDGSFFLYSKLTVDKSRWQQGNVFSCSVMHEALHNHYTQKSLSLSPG
light: QSVLTQPPSASGTPGQRVTISCSGSTSNLKRNYVYWYQQLPGTAPKLLIYRDRRRPSGVPDRFSGSKSGTSASLAISGLRSEDEADYYCAWYDRELSEWVFGGGTKLTVLGGGGSGGGGSGGGGSGGGGSEIVLTQSPATLSLSPGERATLSCRASKGVSTSGYSYLHWYQQKPGQAPRLLIYLASYLESGVPARFSGSGSGTDFTLTISSLEPEDFAVYYCQHSRDLPLTFGGGTKVEIKRTVAAPSVFIFPPSDEQLKSGTASVVCLLNNFYPREAKVQWKVDNALQSGNSQESVTEQDSKDSTYSLSSTLTLSKADYEKHKVYACEVTHQGLSSPVTKSFNRGEC
notes: Dual variable domain format like RV29 but with a longer inter-Fv linker, IgG1 LALAPG
Regarding B4, the Kd in the test with human IL-15 [1] was 0.116 nM; in the test with human PD-1 [2] it was 0.243 nM; with human PD-1 [4], 97 nM; with human IL-15 [3], 0.111 nM.

B5: RV26 (bispecific antibody, human IgG1, lambda, L234A L235A)
heavy 1: QVQLVQSGAEVKKPGASVKVSCKASGYSFSSFGISWVRQAPGQGLEWLGWISAFNGYTKYAQKFQDRVTMTTDTSTSTAYMELRSLRSDDTAVYYCARDPAAWPLQQSLAWFDPWGQGTMVTVSSASTKGPSVFPLAPSSKSTSGGTAALGCLVKDYFPEPVTVSWNSGALTSGVHTFPAVLQSSGLYSLSSVVTVPSSSLGTQTYICNVNHKPSNTKVDKKVEPKSCDKTHTCPPCPAPEAAGGPSVFLFPPKPKDTLMISRTPEVTCVVVDVSHEDPEVKFNWYVDGVEVHNAKTKPREEQYNSTYRVVSVLTVLHQDWLNGKEYKCKVSNKALGAPIEKTISKAKGQPREPQVYVYPPSRDELTKNQVSLTCLVKGFYPSDIAVEWESNGQPENNYKTTPPVLDSDGSFALVSKLTVDKSRWQQGNVFSCSVMHEALHNHYTQKSLSLSPGKGGGGSGGGGSGGGGSGGGGSEIVLTQSPATLSLSPGERATLSCRASKGVSTSGYSYLHWYQQKPGQAPRLLIYLASYLESGVPARFSGSGSGTDFTLTISSLEPEDFAVYYCQHSRDLPLTFGCGTKVEIKGGSGGGSGGGSGGGSGGGSGQVQLVQSGVEVKKPGASVKVSCKASGYTFTNYYMYWVRQAPGQCLEWMGGINPSNGGTNFNEKFKNRVTLTTDSSTTTAYMELKSLQFDDTAVYYCARRDYRFDMGFDYWGQGTTVTVSS
heavy 2: QVQLVQSGAEVKKPGASVKVSCKASGYSFSSFGISWVRQAPGQGLEWLGWISAFNGYTKYAQKFQDRVTMTTDTSTSTAYMELRSLRSDDTAVYYCARDPAAWPLQQSLAWFDPWGQGTMVTVSSASTKGPSVFPLAPSSKSTSGGTAALGCLVKDYFPEPVTVSWNSGALTSGVHTFPAVLQSSGLYSLSSVVTVPSSSLGTQTYICNVNHKPSNTKVDKKVEPKSCDKTHTCPPCPAPEAAGGPSVFLFPPKPKDTLMISRTPEVTCVVVDVSHEDPEVKFNWYVDGVEVHNAKTKPREEQYNSTYRVVSVLTVLHQDWLNGKEYKCKVSNKALGAPIEKTISKAKGQPREPQVYVLPPSRDELTKNQVSLLCLVKGFYPSDIAVEWESNGQPENNYLTWPPVLDSDGSFFLYSKLTVDKSRWQQGNVFSCSVMHEALHNHYTQKSLSLSPG
light: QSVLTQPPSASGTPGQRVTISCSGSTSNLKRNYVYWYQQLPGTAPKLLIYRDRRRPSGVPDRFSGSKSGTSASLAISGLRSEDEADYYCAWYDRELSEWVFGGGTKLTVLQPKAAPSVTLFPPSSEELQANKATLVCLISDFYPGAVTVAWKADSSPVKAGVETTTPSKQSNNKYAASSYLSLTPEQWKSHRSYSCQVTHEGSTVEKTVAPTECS
notes: Heterodimeric IgG1 LALAPG, two anti-IL-15 Fabs and one anti-PD1 scFv (H1H2L1L1); also called fusion of 1 scFv to a HC of a bispecific antibody in Fab-Fab format (RV26)
As to B5, the values for the Kd in the test with human IL-15 [1] and with human PD-1 [5] were 0.396 nM and 2.19 nM, respectively.

B6: RV15 (bispecific antibody, human IgG1, kappa, lambda, L234A L235A)
heavy 1: QVQLVQSGVEVKKPGASVKVSCKASGYTFTNYYMYWVRQAPGQGLEWMGGINPSNGGTNFNEKFKNRVTLTTDSSTTTAYMELKSLQFDDTAVYYCARRDYRFDMGFDYWGQGTTVTVSSASTKGPSVFPLAPSSKSTSGGTAALGCEVTDYFPEPVTVSWNSGALTSGVHTFPAVLESSGLYSLSSVVTVPSSSLGTQTYICNVNHKPSNTKVDKKVEPDSCDKTHTCPPCPAPEAAGGPSVFLFPPKPKDTLMISRTPEVTCVVVDVSHEDPEVKFNWYVDGVEVHNAKTKPREEQYNSTYRVVSVLTVLHQDWLNGKEYKCKVSNKALGAPIEKTISKAKGQPREPQVYVYPPSRDELTKNQVSLTCLVKGFYPSDIAVEWESNGQPENNYKTTPPVLDSDGSFALVSKLTVDKSRWQQGNVFSCSVMHEALHNHYTQKSLSLSPG
light 1: EIVLTQSPATLSLSPGERATLSCRASKGVSTSGYSYLHWYQQKPGQAPRLLIYLASYLESGVPARFSGSGSGTDFTLTISSLEPEDFAVYYCQHSRDLPLTFGGGTKVEIKRTVAAPSVFIFPPKDERLKSGTASVVCLLNNFYPREAKVQWKVDNALQSGNSQESVTEQDSKDSTYSLSSRLTLSKADYEKHKVYACEVTHQGLSSPVTKSFNRGEC
heavy 2: QVQLVQSGAEVKKPGASVKVSCKASGYSFSSFGISWVRQAPGQGLEWLGWISAFNGYTKYAQKFQDRVTMTTDTSTSTAYMELRSLRSDDTAVYYCARDPAAWPLQQSLAWFDPWGQGTMVTVSSASTKGPSVFPLRPSSKSTSGGTAALGCLVKDYFPEPVTVSWNSGALTSGVHTFPAVLQSSGLYSLKSVVTVPSSSLGTQTYICNVNHKPSNTKVDKKVEPKSCDKTHTCPPCPAPEAAGGPSVFLFPPKPKDTLMISRTPEVTCVVVDVSHEDPEVKFNWYVDGVEVHNAKTKPREEQYNSTYRVVSVLTVLHQDWLNGKEYKCKVSNKALGAPIEKTISKAKGQPREPQVYVLPPSRDELTKNQVSLLCLVKGFYPSDIAVEWESNGQPENNYLTWPPVLDSDGSFFLYSKLTVDKSRWQQGNVFSCSVMHEALHNHYTQKSLSLSPG
light 2: QSVLTQPPSASGTPGQRVTISCSGSTSNLKRNYVYWYQQLPGTAPKLLIYRDRRRPSGVPDRFSGSKSGTSASLAISGLRSEDEADYYCAWYDRELSEWVFGGGTKLTVLQPKAAPSVTLFPPSDEELQANTATLVCLISDFYPGAVTVAWKADSSPVKAGVETTTPSKQSNNKYAAESELSLTPEQWKSHRSYSCQVTHEGSTVEKTVAPTECS
notes: Asymmetric IgG1 LALAPG heterodimer, one anti-PD1 Fab arm and one anti-IL-15 Fab arm (H1H2L1L2); also called bispecific antibody in a Fab-Fab format (RV15)
On to B6, for which the Kd with human IL-15 [1] was determined as 0.108 nM; with human PD-1 [5] it was 3.62 nM.

B7: RV29 (bispecific antibody, human IgG1, kappa, L234A L235A)
heavy: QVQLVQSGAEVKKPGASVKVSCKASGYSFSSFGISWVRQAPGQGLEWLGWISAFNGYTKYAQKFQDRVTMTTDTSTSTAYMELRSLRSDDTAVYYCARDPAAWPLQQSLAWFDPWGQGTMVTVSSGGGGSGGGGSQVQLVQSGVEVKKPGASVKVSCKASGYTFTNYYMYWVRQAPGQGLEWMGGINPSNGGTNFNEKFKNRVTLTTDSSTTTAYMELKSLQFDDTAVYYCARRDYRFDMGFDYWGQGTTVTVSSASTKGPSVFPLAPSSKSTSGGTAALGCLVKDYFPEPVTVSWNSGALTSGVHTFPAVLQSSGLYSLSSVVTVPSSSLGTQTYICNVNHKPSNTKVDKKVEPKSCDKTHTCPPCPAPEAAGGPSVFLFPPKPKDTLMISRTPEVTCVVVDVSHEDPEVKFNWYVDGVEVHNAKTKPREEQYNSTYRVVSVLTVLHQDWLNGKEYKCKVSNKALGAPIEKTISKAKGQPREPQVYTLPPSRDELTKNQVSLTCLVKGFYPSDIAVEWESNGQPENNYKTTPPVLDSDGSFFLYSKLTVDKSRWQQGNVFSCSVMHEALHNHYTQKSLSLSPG
light: QSVLTQPPSASGTPGQRVTISCSGSTSNLKRNYVYWYQQLPGTAPKLLIYRDRRRPSGVPDRFSGSKSGTSASLAISGLRSEDEADYYCAWYDRELSEWVFGGGTKLTVLGGGGSGGGGSEIVLTQSPATLSLSPGERATLSCRASKGVSTSGYSYLHWYQQKPGQAPRLLIYLASYLESGVPARFSGSGSGTDFTLTISSLEPEDFAVYYCQHSRDLPLTFGGGTKVEIKRTVAAPSVFIFPPSDEQLKSGTASVVCLLNNFYPREAKVQWKVDNALQSGNSQESVTEQDSKDSTYSLSSTLTLSKADYEKHKVYACEVTHQGLSSPVTKSFNRGEC
notes: Dual variable domain format, IgG1 LALAPG; also called bispecific antibody in DVD format (RV29); bispecific anti-PD-1 x anti-IL-15 antibody
Take B7: the Kd with human IL-15 [1] was determined as 0.114 nM; in the test with human IL-15 [3], 0.339 nM; with human PD-1 [6] it was 2.35 nM.
